In experiment [1] the target is T1, glycosylated GPC3 (Homo sapiens (assumed), UniProt P51654, heparan sulfate chains (glycosylated)).
T1 construct: glypican 3 (GPC3), glycosylated recombinant protein, R and D Systems Cat. # 2119-GP; also called glypican 3; source: bought: R and D Systems
The experiment is described as follows: ELISA; 96-well plate coated with 5 μg/ml of the GPC protein; HS20 added in serial 2-fold dilutions starting from 1 μg/ml, 1 hr at RT; washed with PBST; detected with goat anti-human kappa chain HRP conjugate and TMB, absorbance at 450 nm. The conditions noted are these: both partners purified. For orientation: In an ELISA, binding on a coated surface is turned into a signal by an enzyme label.

In experiment [2] the target is T2, glycosylated GPC4 (Homo sapiens (assumed), UniProt O75487, heparan sulfate chains (glycosylated)).
T2 construct: glypican 4 (GPC4), glycosylated recombinant protein, R and D Systems Cat. # 9195-GP; also called glypican 4; source: bought: R and D Systems
Described as above. The conditions noted are these: both partners purified.

T2 sequence (O75487 19-529): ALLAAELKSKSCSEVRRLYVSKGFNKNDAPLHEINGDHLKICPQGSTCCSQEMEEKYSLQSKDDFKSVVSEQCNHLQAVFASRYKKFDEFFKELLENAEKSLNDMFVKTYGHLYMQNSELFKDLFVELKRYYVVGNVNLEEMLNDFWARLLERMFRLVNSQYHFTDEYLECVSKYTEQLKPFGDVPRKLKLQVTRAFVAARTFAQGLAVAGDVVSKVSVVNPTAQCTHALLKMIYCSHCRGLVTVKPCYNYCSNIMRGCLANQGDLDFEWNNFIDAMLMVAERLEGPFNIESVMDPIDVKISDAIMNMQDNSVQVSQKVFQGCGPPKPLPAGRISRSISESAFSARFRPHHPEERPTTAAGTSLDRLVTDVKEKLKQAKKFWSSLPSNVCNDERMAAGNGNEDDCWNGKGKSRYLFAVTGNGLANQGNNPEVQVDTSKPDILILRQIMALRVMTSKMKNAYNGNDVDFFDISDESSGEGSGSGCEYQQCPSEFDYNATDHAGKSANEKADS
T1 sequence (P51654 25-580): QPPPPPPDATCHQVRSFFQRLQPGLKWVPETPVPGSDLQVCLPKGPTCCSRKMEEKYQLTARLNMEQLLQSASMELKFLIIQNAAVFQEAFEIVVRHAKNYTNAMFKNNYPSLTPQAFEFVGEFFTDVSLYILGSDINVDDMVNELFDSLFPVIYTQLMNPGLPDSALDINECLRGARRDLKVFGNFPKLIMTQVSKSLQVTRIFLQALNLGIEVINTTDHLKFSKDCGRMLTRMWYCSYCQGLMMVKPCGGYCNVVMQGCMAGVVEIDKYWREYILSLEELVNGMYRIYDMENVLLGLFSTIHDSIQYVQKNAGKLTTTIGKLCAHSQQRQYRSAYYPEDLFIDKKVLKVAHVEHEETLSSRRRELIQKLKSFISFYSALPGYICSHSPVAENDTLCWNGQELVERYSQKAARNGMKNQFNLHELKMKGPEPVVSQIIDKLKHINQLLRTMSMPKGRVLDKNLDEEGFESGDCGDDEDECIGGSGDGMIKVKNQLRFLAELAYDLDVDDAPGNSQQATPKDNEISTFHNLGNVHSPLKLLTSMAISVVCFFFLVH

B1: HS20 scFv (scFv, V domains shown)
VH: EVQLLESGGGLVQPGGSLRLSCAASGFTFSSYAMSWVRQAPGKGLEWVSTIQKQGLPTQYADSVKGRFTISRDNSKNTLYLQMNSLRAEDTAVYYCAKNRAKFDYWGQGTLVTVSS
VL: DIQMTQSPSSLSASVGDRVTITCRASQSISSYLNWYQQKPGKAPKLLIYAASMLQSGVPSRFSGSGSGTDFTLTISSLQPEDFATYYCQQNRGFPLTFGQGTKVEIK
notes: it was detected through its human kappa chain
In the case of B1, the binding result in experiment [1] and in experiment [2] was “binds” each time.

For the origin of these results see article PMC7239654, “R-spondins engage heparan sulfate proteoglycans to potentiate WNT signaling” (eLife, 2020).
